Laboratory results published in PMC2515335 (2008).

Target: T1, Importin-β3 (Homo sapiens, UniProt O00410)
T1 chain: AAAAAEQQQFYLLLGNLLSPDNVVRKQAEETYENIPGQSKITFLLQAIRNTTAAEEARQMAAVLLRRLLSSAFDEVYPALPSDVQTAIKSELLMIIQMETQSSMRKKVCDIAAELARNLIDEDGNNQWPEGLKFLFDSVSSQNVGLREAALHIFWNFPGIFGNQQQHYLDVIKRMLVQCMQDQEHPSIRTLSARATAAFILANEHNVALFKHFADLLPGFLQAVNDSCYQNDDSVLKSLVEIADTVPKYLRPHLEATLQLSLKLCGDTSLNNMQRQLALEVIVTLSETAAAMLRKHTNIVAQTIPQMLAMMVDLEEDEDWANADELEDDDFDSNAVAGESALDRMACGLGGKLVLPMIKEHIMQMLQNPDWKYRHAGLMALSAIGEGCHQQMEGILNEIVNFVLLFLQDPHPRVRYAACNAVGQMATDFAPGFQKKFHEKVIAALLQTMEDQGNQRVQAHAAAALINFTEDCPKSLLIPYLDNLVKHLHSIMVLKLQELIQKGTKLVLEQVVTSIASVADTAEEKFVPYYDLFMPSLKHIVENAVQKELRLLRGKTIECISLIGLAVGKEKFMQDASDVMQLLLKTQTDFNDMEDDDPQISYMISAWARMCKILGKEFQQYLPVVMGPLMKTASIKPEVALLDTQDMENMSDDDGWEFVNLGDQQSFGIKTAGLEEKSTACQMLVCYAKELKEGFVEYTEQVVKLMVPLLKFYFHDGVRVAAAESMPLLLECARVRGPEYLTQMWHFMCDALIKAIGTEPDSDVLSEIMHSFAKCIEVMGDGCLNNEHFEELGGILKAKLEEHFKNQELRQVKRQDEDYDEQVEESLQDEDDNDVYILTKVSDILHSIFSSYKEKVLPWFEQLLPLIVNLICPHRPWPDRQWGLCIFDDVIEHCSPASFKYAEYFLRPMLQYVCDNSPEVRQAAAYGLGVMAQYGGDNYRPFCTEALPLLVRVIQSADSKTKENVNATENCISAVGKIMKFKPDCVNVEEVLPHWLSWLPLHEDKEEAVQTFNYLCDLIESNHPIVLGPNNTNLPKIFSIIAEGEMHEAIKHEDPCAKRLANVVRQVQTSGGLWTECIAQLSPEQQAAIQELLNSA
Experiment: native PAGE gel-shift mobility assay/fluorimetry

B1: Vpr 1-96 (protein)
chain: MEQAPEDQGPQREPYNEWTLELLEELKSEAVRHFPRIWLHNLGQHIYETYGDTWAGVEAIIRILQQLLFIHFRIGCRHSRIGVTRQRRARNGASRS
- Kd: 660 nM
